Measured values reported in patent US20040071701A1, “Use of NGF-antagonists for the prevention or treatment of chronic visceral pain” (priority 2002, published 2004).

B1: NGF: 2.5 S-NGF obtained from mouse submaxillary gland (SIGMA reference N-6009) (protein, UniProt P01139 122-241, looked up)
Beta-nerve growth factor: SSTHPVFHMGEFSVCDSVSVWVGDKTTATDIKGKEVTVLAEVNINNSVFRQYFFETKCRASNPVESGCRGIDSKHWNSYCTTTHTFVKALTTDEKQAAWRFIRIDTACVCVLSRKATRRG
modifications: Beta-nerve growth factor

What was measured:
TNBS-treated rats = assay: Colonic distension-induced pain threshold in TNBS-treated rats (chronic colonic allodynia); format: in vivo, rat; conditions: 30 mg/kg s.c. in 20% cyclodextrin 30 minutes before distension, mean +/- SEM (n=7-8), vehicle 17.8+/-1.8, p<0.01
Procedure: (§1) Adult male rats of the Wistar strain, 320 to 350 g in weight (obtained from the Janvier farm, Le Genest-Saint-Isle, France) were used for all the experiments. They were kept under controlled conditions of temperature (20+/−1° C.), humidity (50+/−5%) and lighting (light from 7 to 19 hours). The animals were starved of food for 18 hours before the beginning of the experiments, the supply of water being maintained.
(§2) Distension studies were carried out on waking rats in isobaric mode, using pressure increments of 5 mm of mercury every thirty seconds. A latex balloon, placed in the distal part of the colon is linked to an electronic barostat. The pain threshold is defined as the pressure inducing the first abdominal contraction. Each rat is subjected to four distension trials so as to increase the reproducibility of the test. The mean of the pressure values is calculated on the thresholds observed for the four successive distensions.
A laparotomy is carried out on rats anaesthetized with acepromazine (12 mg/kg i.p.) and ketamine (80 mg/kg i.p.) so as to inject into the proximal colon the trinitrobenzenesulphonic acid (TNBS) (50 mg/kg) in ethanol at 30%. The rats are then placed in individual cages. The colonic distension experiment is performed seven days after the administration of TNBS. […]

naïve rats = assay: Colonic distension-induced pain threshold in naïve rats (isobaric balloon distension); format: in vivo, rat
Procedure: as §1, §2
2.5 S-NGF obtained from mouse submaxillary gland (marketed by the company SIGMA under the reference N-6009) is dissolved in 0.1% bovine serum albumin (BSA). Into the naïve rats, 0.1 ng to 100 ng of NGF are injected by the i.p. route, 30 minutes before the distension.
Naïve rats were subjected to distension experiments with a balloon placed in the distal part of the colon. […]

Row | Molecule | colonic pain threshold (TNBS-treated rats) | colonic pain threshold (naïve rats; naïve Wistar rats, 1 ng of NGF i.p. 30 minutes before distension, control (BSA) about 44 mmHg) | effect on threshold of pain in the colon (naïve rats; naïve rats, increasing doses of NGF (0.1 ng to 100 ng) i.p.)
1 | O=C1c2cccc3cc([N+](=O)[O-])cc(c23)C(=O)N1NCCO [ALE-0540] | 37.6+/−4.5 mmHg |  | 
2 | B1 |  | less than 20 mmHg | significant reduction
